Biological target: T1, human FGF23 (fibroblast growth factor 23) (human, UniProt Q9GZV9 25-251)
T1 construct: In the total FGF23 ECLA the FGF23 was recombinant human FGF23 (standards) and endogenous FGF23 in patient serum (samples); It may include the signal peptide; also called recombinant human FGF23; rhFGF23
T1 sequence: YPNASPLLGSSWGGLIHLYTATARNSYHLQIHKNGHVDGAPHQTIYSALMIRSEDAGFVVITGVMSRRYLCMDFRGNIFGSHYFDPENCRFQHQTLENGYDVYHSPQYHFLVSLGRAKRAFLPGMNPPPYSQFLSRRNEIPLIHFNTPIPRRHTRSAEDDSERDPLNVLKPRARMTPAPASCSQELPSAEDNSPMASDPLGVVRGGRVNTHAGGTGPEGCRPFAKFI
Experiment: total FGF23 ECLA; rhFGF23 standards and serum samples incubated with excess KRN23, complex detected
Method: The mean values of serum total intact FGF23 levels at Baseline were recorded. The total FGF23 ECLA assay measures endogenous FGF23 in the presence of KRN23, whether complexed or unbound in serum. Standards (recombinant human FGF23 [rhFGF23]) and samples are incubated with excess amounts of KRN23 in a buffer matrix then detected by the assay. The assay measures the KRN23/FGF23 complex, which represents all endogenous FGF23 in the sample.

B1: KRN23 (antibody, human IgG1, kappa, V domains shown)
VH: QVQLVQSGAEVKKPGASVKVSCKASGYTFTNHYMHWVRQAPGQGLEWMGIINPISGSTSNAQKFQGRVTMTRDTSTSTVYMELSSLRSEDTAVYYCARDIVDAFDFWGQGTMVTVSS
VL: AIQLTQSPSSLSASVGDRVTITCRASQGISSALVWYQQKPGKAPKLLIYDASSLESGVPSRFSGSGSGTDFTLTISSLQPEDFATYYCQQFNDYFTFGPGTKVDIKR
notes: also called anti-FGF23 antibody KRN23; recombinant fully human monoclonal IgG1 antibody
B1: binds.
